From patent publication US20040043420A1, “Method of identifying conformation-sensitive binding peptides and uses thereof” (priority 2003, published 2004) come the findings set out here.

Experiment [1] deals with T1, ER β (UniProt Q92731 1-530, limits assumed).
T1 construct: In vitro; also called estrogen receptor β; ERβ-ERE
Nature of the experiment: peptide probe binding to ERβ, Estriol.

For experiment [2], the target named is T1, ER β. Kind of experiment: peptide probe binding to ERβ, 17β-Estradiol.
Experiment [3] addresses T2, ER α (UniProt P03372 1-595, limits assumed).
T2 construct: also called estrogen receptor α; ERα-ERE
T2 sequence (looked up): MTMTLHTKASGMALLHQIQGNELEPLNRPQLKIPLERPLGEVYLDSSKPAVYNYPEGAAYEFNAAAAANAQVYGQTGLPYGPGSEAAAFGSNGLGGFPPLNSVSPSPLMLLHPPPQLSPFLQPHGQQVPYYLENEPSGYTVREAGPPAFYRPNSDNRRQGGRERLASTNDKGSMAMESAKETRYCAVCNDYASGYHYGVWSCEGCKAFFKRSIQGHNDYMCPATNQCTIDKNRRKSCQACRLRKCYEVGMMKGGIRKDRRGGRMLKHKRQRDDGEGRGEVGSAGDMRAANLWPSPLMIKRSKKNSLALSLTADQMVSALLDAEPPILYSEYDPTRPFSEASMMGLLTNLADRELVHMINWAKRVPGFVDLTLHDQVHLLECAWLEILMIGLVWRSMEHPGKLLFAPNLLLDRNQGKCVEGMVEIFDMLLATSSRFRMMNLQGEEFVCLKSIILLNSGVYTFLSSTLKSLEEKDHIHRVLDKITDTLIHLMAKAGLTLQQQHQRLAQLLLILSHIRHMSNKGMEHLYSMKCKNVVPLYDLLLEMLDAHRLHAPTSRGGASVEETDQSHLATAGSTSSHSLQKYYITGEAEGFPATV
Nature of the experiment: peptide probe binding to ERα, ICI 182,780.

Experiment [4] deals with T1, ER β. Kind of experiment: peptide probe binding to ERβ, GW 7604.
Experiment [5] has as its target T1, ER β. Nature of the experiment: peptide probe binding to ERβ, Raloxifene.
The target of experiment [6] is T2, ER α. Kind of experiment: peptide probe binding to ERα, Diethylstilbesterol.
Experiment [7] deals with T2, ER α. Nature of the experiment: peptide probe binding to ERα, 4-OH Tamoxifen.
In experiment [8] the target is T1, ER β. Nature of the experiment: peptide probe binding to ERβ, Clomiphene.

T1 sequence (Q92731 whole entry): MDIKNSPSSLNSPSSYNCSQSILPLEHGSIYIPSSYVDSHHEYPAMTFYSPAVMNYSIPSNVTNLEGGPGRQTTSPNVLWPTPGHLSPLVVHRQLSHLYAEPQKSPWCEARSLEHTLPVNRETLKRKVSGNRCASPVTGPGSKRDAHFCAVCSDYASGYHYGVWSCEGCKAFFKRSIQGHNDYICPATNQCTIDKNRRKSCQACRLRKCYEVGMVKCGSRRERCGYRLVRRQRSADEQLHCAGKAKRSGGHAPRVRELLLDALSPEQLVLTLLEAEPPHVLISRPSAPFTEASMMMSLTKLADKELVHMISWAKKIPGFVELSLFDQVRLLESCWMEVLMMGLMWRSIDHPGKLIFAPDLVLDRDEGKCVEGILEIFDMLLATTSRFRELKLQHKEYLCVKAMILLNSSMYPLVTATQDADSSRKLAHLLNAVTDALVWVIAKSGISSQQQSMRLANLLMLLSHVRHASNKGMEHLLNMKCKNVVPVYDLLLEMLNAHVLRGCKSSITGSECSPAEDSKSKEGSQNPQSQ

B1: α/β III (peptide)
peptide: SSWDMHQFFWEGVSR
notes: also called AB3
In the case of B1, the Equiv. in the experiment with ER β [1] was -57%; with ER β [2], -71%; with ER α [3], -100%; in the experiment with ER β [4], -86%; with ER β [5] it was 77%; with ER α [6] it was -53%. Besides, the values for the Equiv. with ER α [7] and in the experiment with ER β [8] were 100% and 34%, respectively.
